Here are results for 2 substances from publication PMC8119897.

As a reminder, the stoichiometry N is a count of units in the complex or per binding partner.

Test [1] addresses Fructose-1,6-bisphosphate aldolase FBA^C of Bacillus methanolicus MGA3 (chromosomally encoded) (Bacillus methanolicus MGA3). Description: crystal structure; FBA^C crystallised by sitting-drop vapor diffusion at 20°C; reservoir 0.1 M sodium acetate trihydrate pH 4.5, 2.0 M ammonium sulfate; molecular replacement with PDB 3Q94.
The target of test [2] is Fructose-1,6-bisphosphate aldolase FBA^P of Bacillus methanolicus MGA3 (encoded on plasmid pBM19) (Bacillus methanolicus MGA3). Briefly: crystal structure; FBA^P crystallised by sitting-drop vapor diffusion at 8°C; reservoir 20% PEG 4000, 0.2 M imidazole/malate buffer pH 6; molecular replacement with PDB 3Q94.

Consider “Fructose-1,6-bisphosphate aldolase FBA^C of Bacillus methanolicus MGA3 (chromosomally encoded) (enzyme)”, for which the stoichiometry N in test [1] amounted to 4.

Regarding “Fructose-1,6-bisphosphate aldolase FBA^P of Bacillus methanolicus MGA3 (encoded on plasmid pBM19) (enzyme)”, the stoichiometry N in test [2] was found to be 4.
